# Experimental data: patent US20220340684A1 (AGENCY FOR SCIENCE TECHNOLOGY AND RESEARCH, published 2022)
# Residue numbers refer to the chain shown, from its start.
# B1: Fc region SN 1 of FIG. 13 (IgG1 256P/433S/434H/440G) (other)
# chain: PCPAPELLGGPSVFLFPPKPKDTLMISRPPEVTCVVVDVSHEDPEVKFNWYVDGVEVHNAKTKPREEQYNSTYRVVSVLTVLHQDWLNGKEYKCKVSNKALPAPIEKTISKAKGQPREPQVYTLPPSRDELTKNQVSLTCLVKGFYPSDIAVEWESNGQPENNYKTTPPVLDSDGSFFLYSKLTVDKSRWQQGNVFSCSVMHEALSHHYTQKGLSLSPGK
# B2: Fc region SN 9 of FIG. 13 (IgG1 256P/433V/434H) (other)
# chain: B1 chain with S206V, G213S
# B3: Fc region SN 92 of FIG. 13 (IgG1 256A/436F/440M) (other)
# chain: B1 chain with P29A, S206H, H207N, Y209F, G213M
# B4: Fc region SN 10 of FIG. 13 (IgG1 256P/433V/434H/440R) (other)
# chain: B1 chain with S206V, G213R
# B5: Fc region SN 32 of FIG. 13 (IgG1 256P/433T/434R) (other)
# chain: B1 chain with S206T, H207R, G213S
# B6: Fc region SN 46 of FIG. 13 (IgG1 256P/433V/434R) (other)
# chain: B1 chain with S206V, H207R, G213S
# B7: modified Fc (other)
# Fc polypeptide (CH2-CH3): B1 chain with S206T, H207R, Y209F, G213I
# notes: also called PN04-90 Fc
# B8: Fc region SN 2 of FIG. 13 (IgG1 256P/433S/434H) (other)
# chain: B1 chain with G213S
# B9: Recombinant human TRIM21 PRYSPRY domain (His-tagged, expressed in E. coli BL21 (DE3)) (receptor)
# chain: VHITLDPDTANPWLILSEDRRQVRLGDTQQSIPGNEERFDSYPMVLGAQHFHSGKHYWEVDVTGKEAWDLGVCRDSVRRKGHFLLSSKSGFWTIWLWNKQKYEAGTYPQTPLHLQVPPCQVGIFLDYEAGMVSFYNITDHGSLIYSFSECAFTGPLRPFFSPGFNDGGKNTAPLTLCPLNIGSQGSTDY
# modifications: biotinylated when used as bait for biopanning and in the ELISAs (sites not given)
# notes: Purified on Ni-NTA and by gel filtration; Analyte in SPR; biotinylated form used in biopanning and ELISA; also called PRYSPRY domain of TRIM21; bait protein; not shown: N-terminal His-tag of the pQE-2 vector
# Tests used:
# [1] = molecular target: B9; assay: SPR as in Example 1.10, TRIM21 PRYSPRY domain;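 further: antibodies amine-coupled to a GLC chip on a ProteON XPR36, TRIM21 flowed at five concentrations in PBS with 0.05% Tween-20, kinetics fitted to a Langmuir 1:1 model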
# [2] = molecular target: B9; assay: ELISA, 0.125 µg/ml biotinylated PRYSPRY domain
# [3] = molecular target: T1, Wildtype IgG1 Fc (reference in the SPR table of Example 4) (human, UniProt P0DOX5 230-449 = IgG part, limits assumed); assay: SPR as in Example 1.10, TRIM21 PRYSPRY domain;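 further: antibodies amine-coupled to a GLC chip on a ProteON XPR36, TRIM21 flowed at five concentrations in PBS with 0.05% Tween-20, kinetics fitted to a Langmuir 1:1 model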
# T1 construct: also called wildtype Fc
binder,measurement,setting,value
B1,Kd,[1],0.055 nM
same,koff,[1],0.000388 s⁻¹
same,kon,[1],7.05e+06 M⁻¹ s⁻¹
B2,Kd,[1],0.0957 nM
same,koff,[1],0.000481 s⁻¹
same,kon,[1],5.03e+06 M⁻¹ s⁻¹
B3,Kd,[1],3.68 nM
same,koff,[1],0.0145 s⁻¹
same,kon,[1],3.94e+06 M⁻¹ s⁻¹
B4,Kd,[1],0.892 nM
same,koff,[1],0.00046 s⁻¹
same,kon,[1],515000 M⁻¹ s⁻¹
B5,Kd,[1],0.498 nM
same,koff,[1],0.00053 s⁻¹
same,kon,[1],1.06e+06 M⁻¹ s⁻¹
B6,Kd,[1],0.169 nM
same,koff,[1],0.000124 s⁻¹
same,kon,[1],730000 M⁻¹ s⁻¹
B7,binding result,[2],binds
B8,Kd,[1],0.156 nM
same,koff,[1],0.000727 s⁻¹
same,kon,[1],4.66e+06 M⁻¹ s⁻¹
B9,Kd,[3],126 nM
same,koff,[3],0.0812 s⁻¹
same,kon,[3],647000 M⁻¹ s⁻¹
